Test results published in CN117624362A.

Molecular target: T1, 人CD20 (human) (UniProt P11836)
T1 sequence (looked up): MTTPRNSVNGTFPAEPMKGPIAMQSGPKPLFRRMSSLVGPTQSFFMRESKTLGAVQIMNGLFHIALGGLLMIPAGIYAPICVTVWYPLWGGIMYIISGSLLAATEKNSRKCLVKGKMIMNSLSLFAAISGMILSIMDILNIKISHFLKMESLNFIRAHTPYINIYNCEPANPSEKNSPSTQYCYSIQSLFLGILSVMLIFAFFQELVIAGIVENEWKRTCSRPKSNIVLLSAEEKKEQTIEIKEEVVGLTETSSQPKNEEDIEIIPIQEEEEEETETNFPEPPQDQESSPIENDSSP
Assay: flow cytometry titration on lysed human blood cells, dilutions 1:100 to 1:96000 of 1 mg/mL antibody, goat anti-mouse IgG-PE detection

In the case of “商品化鼠抗人CD20[2H7]抗体 (Biolegend) (antibody)”, the 亲和力(kd) is reported as 195 (1mg/mL).

B1: 鼠抗人CD20[ZXCloneHCD20-07] (antibody, V domains shown)
VH: QVQLQQPGAELVKPGASVKMSCKASGYTFTSYNIHWVKQTPGQGLEWIGAIYPGNGDTSHNQKFKGKATLTADRSSSTAYMQFSSLTSEDSAVYYCARSRRYDGDWSFDVWGAGTTVTVSS
VL: QIVLTQSPAIMSASPGEKVTMTCSASSFITYMHWFQQKSGTSPKRWIYDTSKLASGVPARFSGSGSGTSYSLTISSMEAEDAATYYCQQWNSNPPTFGGGTKLEIKR
In the case of B1, the 亲和力(kd) is reported as 190 (1mg/mL).
